Consider one protein from paper PMC5082758, “A Novel Pathway for Metabolism of the Cardiovascular Risk Factor Homoarginine by alanine:glyoxylate aminotransferase 2” (Scientific Reports, 2016).

Substrate in data set [1]: N=C(N)NCCCC[C@H](N)C(=O)O
The data set is described as follows: purified protein. In kind it is biochemical, Homo sapiens. Conditions: amino donor, co-substrate 1 mM pyruvate, PLP added (200 μM in methods, 100 μM in Figure 3 legend), potassium phosphate pH 8, 0.15 M NaCl, 25 °C.

Substrate in data set [2]: C[C@H](N)C(=O)O
The data set is described as follows: purified protein. Conditions: amino donor, co-substrate 1 mM glyoxylate, PLP added (200 μM in methods, 100 μM in Figure 3 legend), potassium phosphate pH 8, 0.15 M NaCl, 25 °C.

B1: human alanine:glyoxylate aminotransferase 2 (AGXT2) (Homo sapiens) (protein)
chain: LHTKPRMPPCDFMPERYQSLGYNRVLEIHKEHLSPVVTAYFQKPLLLHQGHMEWLFDAEGSRYLDFFSGIVTVSVGHCHPKVNAVAQKQLGRLWHTSTVFFHPPMHEYAEKLAALLPEPLKVIFLVNSGSEANELAMLMARAHSNNIDIISFRGAYHGCSPYTLGLTNVGTYKMELPGGTGCQPTMCPDVFRGPWGGSHCRDSPVQTIRKCSCAPDCCQAKDQYIEQFKDTLSTSVAKSIAGFFAEPIQGVNGVVQYPKGFLKEAFELVRARGGVCIADEVQTGFGRLGSHFWGFQTHDVLPDIVTMAKGIGNGFPMAAVITTPEIAKSLAKCLQHFNTFGGNPMACAIGSAVLEVIKEENLQENSQEVGTYMLLKFAKLRDEFEIVGDVRGKGLMIGIEMVQDKISCRPLPREEVNQIHEDCKHMGLLVGRGSIFSQTFRIAPSMCITKPEVDFAVEVFRSALTQHMERRAK
notes: C-terminal FLAG fusion under CAG promoter; tag kept
Turning to B1, in “purified protein [1]”, the Km worked out at 24 ± 3 mM, the turnover number (kcat) was 0.0188 ± 0.00067 s⁻¹ and the kcat/Km turned out to be 0.783 ± 0.1 M⁻¹ s⁻¹. In the data set “purified protein [2]”, the Km turned out to be 25 ± 3 mM, the kcat was found to be 0.142 ± 0.0083 s⁻¹ and the kcat/Km worked out at 5.67 M⁻¹ s⁻¹.
